Values of other authors, collected in paper PMC5132258.

Target: His89 (UniProt position 89, VLYCVHQRIDV)
Details: not stated (folded wild-type matrix protein implied; myristoylation state not given)

HIV-1 matrix protein p17 (MA), N-terminal domain of the Gag polyprotein (Human immunodeficiency virus type 1)
pKa: 6.5
